# From patent US20180155406A1 (Sanofi, published 2018)
# Numbered stars: 1 amine (or outer) side, 2 acyl side, 3 side chain; on linkers, the order of the positions; unused ones are H or OH. Square brackets hold non-standard residues; d marks the D form. Side chains are listed from the residue outwards. Ends that are not written are not given here. * marks the point of attachment. γGlu = O=C(O)[C@H](CCC(=O)[*:2])N[*:1]; Stearoyl = CCCCCCCCCCCCCCCCCC(=O)*; Palmitoyl = CCCCCCCCCCCCCCCC(=O)*; gAAA = not defined here; AEEA = NCCOCCOCC(=O)O; Aib = CC(C)(N)C(=O)O
# T1: human GIP receptor (human, UniProt P48546 22-466)
# T1 sequence (looked up): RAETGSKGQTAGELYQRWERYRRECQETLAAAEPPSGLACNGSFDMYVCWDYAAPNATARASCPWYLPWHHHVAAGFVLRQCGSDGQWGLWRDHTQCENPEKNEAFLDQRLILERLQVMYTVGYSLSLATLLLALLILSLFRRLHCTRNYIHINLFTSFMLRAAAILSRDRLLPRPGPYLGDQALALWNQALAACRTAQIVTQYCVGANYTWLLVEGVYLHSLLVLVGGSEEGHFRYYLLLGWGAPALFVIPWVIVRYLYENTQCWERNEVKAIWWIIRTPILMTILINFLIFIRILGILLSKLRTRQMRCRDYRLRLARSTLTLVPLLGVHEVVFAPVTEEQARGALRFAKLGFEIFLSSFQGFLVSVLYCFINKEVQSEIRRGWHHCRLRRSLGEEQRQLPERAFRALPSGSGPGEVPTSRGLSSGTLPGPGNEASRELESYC
# Legend:
# Test in all cases: cell-based or functional assay
# [1] = target: human glucagon receptor (human) (UniProt P47871)
# Sequence of human glucagon receptor (human) (P47871 26-477): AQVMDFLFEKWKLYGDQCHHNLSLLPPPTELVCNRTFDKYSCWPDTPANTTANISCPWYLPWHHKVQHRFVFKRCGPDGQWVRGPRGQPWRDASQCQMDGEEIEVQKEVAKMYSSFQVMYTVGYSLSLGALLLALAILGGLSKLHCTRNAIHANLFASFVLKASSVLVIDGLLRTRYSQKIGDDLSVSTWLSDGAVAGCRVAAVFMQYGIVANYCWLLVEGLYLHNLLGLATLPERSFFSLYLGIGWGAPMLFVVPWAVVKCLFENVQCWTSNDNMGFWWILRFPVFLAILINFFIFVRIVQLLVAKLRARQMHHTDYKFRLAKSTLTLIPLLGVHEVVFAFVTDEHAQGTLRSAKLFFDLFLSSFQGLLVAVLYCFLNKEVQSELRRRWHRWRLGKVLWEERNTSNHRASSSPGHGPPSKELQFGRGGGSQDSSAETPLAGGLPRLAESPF
# [2] = target: human GLP-1 receptor (human) (UniProt P43220)
# Sequence of human GLP-1 receptor (human) (P43220 24-463): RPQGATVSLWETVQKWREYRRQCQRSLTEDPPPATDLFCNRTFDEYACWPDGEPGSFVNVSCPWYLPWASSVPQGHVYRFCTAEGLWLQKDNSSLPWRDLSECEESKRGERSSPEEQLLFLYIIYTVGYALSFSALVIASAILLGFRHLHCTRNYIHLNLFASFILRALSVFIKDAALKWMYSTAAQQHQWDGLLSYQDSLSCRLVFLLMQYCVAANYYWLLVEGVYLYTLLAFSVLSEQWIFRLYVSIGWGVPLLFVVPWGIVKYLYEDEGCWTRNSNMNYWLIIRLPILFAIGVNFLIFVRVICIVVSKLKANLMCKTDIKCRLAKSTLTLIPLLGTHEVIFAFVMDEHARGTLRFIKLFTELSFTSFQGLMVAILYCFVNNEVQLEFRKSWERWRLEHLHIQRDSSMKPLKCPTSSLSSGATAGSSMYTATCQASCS
# human glucagon receptor [3] = target: T2, human glucagon receptor (human, UniProt P47871 26-477)
# T2 sequence (P47871 26-477): as the sequence (P47871 26-477) above
# human glucagon receptor [4] = target: T2, human glucagon receptor; remark: listed apart in the source
# human GIP receptor = target: T1, human GIP receptor
# human GLP-1 receptor = human GLP-1 receptor (human, UniProt P43220 24-463)
Molecule,EC50 hGlucagon R [pM] (cAMP formation) [1],EC50 hGLP-1 R [pM] (cAMP formation) [2],EC50 hGlucagon-R (human glucagon receptor [3]) [pM],EC50 hGlucagon R (cAMP formation) (human glucagon receptor [4]) [pM],EC50 hGIP R (cAMP formation) (human GIP receptor) [pM],EC50 hGLP-1R (cAMP formation) (human GLP-1 receptor) [pM]
exendin-4 (peptide),> 1e+07,0.4,–,–,–,–
HXQGTFTSDLSKQKDEQRAKEFIEWLKAGGPSSGAPPPS (Aib at 2; Lys14 side chain acylated with gGlu-Stea; C-terminal amide) [SEQ ID NO: 28],–,–,1.9,–,–,–
H[Aib]HGTFTSDLSKLK([γGlu-AEEA-gAAA-Palmitoyl])EEQRQKEFIEWLKA[dA]GHPS[Aib]KPPPK-NH2 (reading uncertain) [SEQ ID NO: 23],–,–,–,6.8,1.5,1.4
H[Aib]HGTFTSDLSKLK([γGlu-Stearoyl])EEQRQKEFIEWLKAGGPPS[Aib]KPPPK-NH2 (N-terminus assumed; SMILES CCCCCCCCCCCCCCCCCC(=O)N[C@@H](CCC(=O)NCCCC[C@H](NC(=O)[C@H](CC(C)C)NC(=O)[C@H](CCCCN)NC(=O)[C@H](CO)NC(=O)[C@H](CC(C)C)NC(=O)[C@H](CC(=O)O)NC(=O)[C@H](CO)NC(=O)[C@@H](NC(=O)[C@H](Cc1ccccc1)NC(=O)[C@@H](NC(=O)CNC(=O)[C@H](Cc1c[nH]cn1)NC(=O)C(C)(C)NC(=O)[C@@H](N)Cc1c[nH]cn1)[C@@H](C)O)[C@@H](C)O)C(=O)N[C@@H](CCC(=O)O)C(=O)N[C@@H](CCC(=O)O)C(=O)N[C@@H](CCC(N)=O)C(=O)N[C@@H](CCCNC(=N)N)C(=O)N[C@@H](CCC(N)=O)C(=O)N[C@@H](CCCCN)C(=O)N[C@@H](CCC(=O)O)C(=O)N[C@@H](Cc1ccccc1)C(=O)N[C@H](C(=O)N[C@@H](CCC(=O)O)C(=O)N[C@@H](Cc1c[nH]c2ccccc12)C(=O)N[C@@H](CC(C)C)C(=O)N[C@@H](CCCCN)C(=O)N[C@@H](C)C(=O)NCC(=O)NCC(=O)N1CCC[C@H]1C(=O)N1CCC[C@H]1C(=O)N[C@@H](CO)C(=O)NC(C)(C)C(=O)N[C@@H](CCCCN)C(=O)N1CCC[C@H]1C(=O)N1CCC[C@H]1C(=O)N1CCC[C@H]1C(=O)N[C@@H](CCCCN)C(N)=O)[C@@H](C)CC)C(=O)O) [SEQ ID NO: 21],–,–,–,1.9,2.6,3.4
H[Aib]HGTFTSDLSKLK([γGlu-γGlu-Palmitoyl])EEQRQKEFIEWLKAGGHPS[Aib]KPPPK-NH2 (N-terminus assumed; SMILES CCCCCCCCCCCCCCCC(=O)N[C@@H](CCC(=O)N[C@@H](CCC(=O)NCCCC[C@H](NC(=O)[C@H](CC(C)C)NC(=O)[C@H](CCCCN)NC(=O)[C@H](CO)NC(=O)[C@H](CC(C)C)NC(=O)[C@H](CC(=O)O)NC(=O)[C@H](CO)NC(=O)[C@@H](NC(=O)[C@H](Cc1ccccc1)NC(=O)[C@@H](NC(=O)CNC(=O)[C@H](Cc1c[nH]cn1)NC(=O)C(C)(C)NC(=O)[C@@H](N)Cc1c[nH]cn1)[C@@H](C)O)[C@@H](C)O)C(=O)N[C@@H](CCC(=O)O)C(=O)N[C@@H](CCC(=O)O)C(=O)N[C@@H](CCC(N)=O)C(=O)N[C@@H](CCCNC(=N)N)C(=O)N[C@@H](CCC(N)=O)C(=O)N[C@@H](CCCCN)C(=O)N[C@@H](CCC(=O)O)C(=O)N[C@@H](Cc1ccccc1)C(=O)N[C@H](C(=O)N[C@@H](CCC(=O)O)C(=O)N[C@@H](Cc1c[nH]c2ccccc12)C(=O)N[C@@H](CC(C)C)C(=O)N[C@@H](CCCCN)C(=O)N[C@@H](C)C(=O)NCC(=O)NCC(=O)N[C@@H](Cc1c[nH]cn1)C(=O)N1CCC[C@H]1C(=O)N[C@@H](CO)C(=O)NC(C)(C)C(=O)N[C@@H](CCCCN)C(=O)N1CCC[C@H]1C(=O)N1CCC[C@H]1C(=O)N1CCC[C@H]1C(=O)N[C@@H](CCCCN)C(N)=O)[C@@H](C)CC)C(=O)O)C(=O)O) [SEQ ID NO: 6],–,–,–,2.3,2.1,1.4
H[Aib]HGTFTSDLSKLK([γGlu-Palmitoyl])EEQRQKEFIEWLKAGGPPS[Aib]KPPPK-NH2 (N-terminus assumed; SMILES CCCCCCCCCCCCCCCC(=O)N[C@@H](CCC(=O)NCCCC[C@H](NC(=O)[C@H](CC(C)C)NC(=O)[C@H](CCCCN)NC(=O)[C@H](CO)NC(=O)[C@H](CC(C)C)NC(=O)[C@H](CC(=O)O)NC(=O)[C@H](CO)NC(=O)[C@@H](NC(=O)[C@H](Cc1ccccc1)NC(=O)[C@@H](NC(=O)CNC(=O)[C@H](Cc1c[nH]cn1)NC(=O)C(C)(C)NC(=O)[C@@H](N)Cc1c[nH]cn1)[C@@H](C)O)[C@@H](C)O)C(=O)N[C@@H](CCC(=O)O)C(=O)N[C@@H](CCC(=O)O)C(=O)N[C@@H](CCC(N)=O)C(=O)N[C@@H](CCCNC(=N)N)C(=O)N[C@@H](CCC(N)=O)C(=O)N[C@@H](CCCCN)C(=O)N[C@@H](CCC(=O)O)C(=O)N[C@@H](Cc1ccccc1)C(=O)N[C@H](C(=O)N[C@@H](CCC(=O)O)C(=O)N[C@@H](Cc1c[nH]c2ccccc12)C(=O)N[C@@H](CC(C)C)C(=O)N[C@@H](CCCCN)C(=O)N[C@@H](C)C(=O)NCC(=O)NCC(=O)N1CCC[C@H]1C(=O)N1CCC[C@H]1C(=O)N[C@@H](CO)C(=O)NC(C)(C)C(=O)N[C@@H](CCCCN)C(=O)N1CCC[C@H]1C(=O)N1CCC[C@H]1C(=O)N1CCC[C@H]1C(=O)N[C@@H](CCCCN)C(N)=O)[C@@H](C)CC)C(=O)O) [SEQ ID NO: 20],–,–,–,4.2,1.9,4.8
H[Aib]HGTFTSDLSKLK([γGlu-AEEA-gAAA-Palmitoyl])EEQRQKEFIEWLKAGGHPS[Aib]KPPPK-NH2 (reading uncertain) [SEQ ID NO: 22],–,–,–,5.9,1.1,1
